Source: PMC11957393

Molecular target: chicken MyD88, full length, Flag-tagged (Flag-MyD88), expressed in HEK293T cells (chicken) (UniProt A5HNF6)
Assay: co-IP; HEK293T cells co-transfected with the indicated plasmids (2 ug/1x10^6 cells), harvested at 30 h; NP-40 lysis buffer; immunoprecipitated by the Flag tag, blotted for HA and Flag tags

Chain of UniProt A5HNF6 (A5HNF6 whole entry): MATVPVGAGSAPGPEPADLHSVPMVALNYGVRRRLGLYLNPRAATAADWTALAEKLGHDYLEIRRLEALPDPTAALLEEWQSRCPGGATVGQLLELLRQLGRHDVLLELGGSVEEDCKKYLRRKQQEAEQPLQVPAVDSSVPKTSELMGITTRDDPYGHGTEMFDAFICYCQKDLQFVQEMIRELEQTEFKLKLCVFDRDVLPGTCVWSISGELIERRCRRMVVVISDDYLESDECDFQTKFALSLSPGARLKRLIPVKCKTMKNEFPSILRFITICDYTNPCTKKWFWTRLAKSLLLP

Substance “VP2-HT: IBDV VP2 with the double mutation Q253H/A284T (VP2 of the rescued HT strain), expressed in HEK293T cells (natural protein)” has a fold decrease of interaction compared to VP2 of 2.9 fold.
